# Entries after “also recorded” stand apart in the source; their conditions may differ. Marks after values point to notes of the source that are not given here.
# What was measured:
# [1] = Whole-body autoradiography after injection of 25 μl or 50 μl complex solution into the prostate gland; format: in vivo, male SD rats
# Description: After one week acclimation, male SD rats were anesthetized with diethylether, and an about 2-cm midline incision was made in the lower abdomen of the pubis. After the prostate gland was exposed along with the bladder, 25 μl and 50 μl (each about 100 μCi) of the complex solution prepared in Example 2 were individually administered to the prostate gland using a syringe. After the rats were sacrificed 0.5 hr and 6 hrs after administration, cryosections were prepared, and whole-body autoradiography was carried out to measure radioactive concentrations in the liver, spleen, kidney, the end region of the femur, spine and administration sites. The measured radioactive concentrations (% ID/g) in various organs after injection of the complex solution are given in Table 1, below.
# Numerals of Table 1 indicate mean+standard deviation (n=3).
# [2] = Cumulative urinary and fecal excretion of radioactivity for 72 hrs after injection into the prostate gland; format: in vivo, SD rats; settings: for Radioactivity remaining in Carcass / Radioactivity remaining in Prostate gland: 72 hr; for Total recovery rate: 72 hrs
# Description: After the complex solution was administered to the prostate gland, cumulative urinary and fecal excretions of radioactivity were examined to investigate the amount of excreted ^166Ho. 25 μl of the test drug was administered to the prostate gland of SD rats, which was equal to about 100 μCi. The amount of radioactivity excreted for 72 hrs was measured. The rats were kept in metabolic cages made of a stainless material. Urine and feces were collected, and, 72 hrs after administration, the rats were sacrificed with diethylether. Radioactivity remaining in the carcass and the prostate gland was also measured.
# [3] = test system: DU-145 carcinoma cell line (hormone-independent prostate carcinoma cell line); assay: Antitumor effect in DU-145 subcutaneous tumor model, intratumoral injection; format: in vivo, nude mice; settings: for Tumor volume after injection: intratumoral; for Tumor growth inhibition rate: last day of the test (2 wks), tumor volume vs control
# Description: To investigate the effect of the complex on hormone-independent prostate cancer, a DU-145 carcinoma cell line (hormone-independent prostate carcinoma cell line), which is rarely produces prostate-specific antigen, was transplanted into nude mice and the antitumor effect of the complex was evaluated.
# The DU-145 cells were cultured in 10% FBS (fetal bovine serum)-containing F-12K(Kaign's Modification of Ham's F-12 medium) in a 5% CO2 incubator at 37° C., and 2×10^5 cells/0.2 ml/head were subcutaneously transplanted into the lumbar portion of male 6-week nude mice. When the long axis of the tumor was about 1 cm long, the complex solution was intratumorally injected. The administration volume of the test drug was 0.2 ml. The mice were divided into four groups: a control group (no treatment); two administration groups administered with the complex solution at doses of 10 mCi and 20 mCi per 1 cm^3 tumor; and another administration group administered with a non-radioactive complex solution [Holmium-165 (^165Ho)-chitosan complex solution]. Two weeks after administration with the complex solution, the mice were histopathologically examined to evaluate the antitumor effect and toxicity to major organs of the complex.
# [4] = test system: AIT prostate carcinoma cells; assay: Antitumor effect in orthotopic tumor model, AIT transplanted into the prostate gland; format: in vivo, noble rats
# Description: In addition to the subcutaneous tumor model tested in Experimental Example 6, the antitumor effect and side effects of the complex solution was examined in an orthotopic tumor model where AIT prostate carcinoma cells had been directly transplanted into the prostate gland. AIT cells were cultured in 10% FBS-containing DMEM at 37° under 5% CO2. The cultured carcinoma cells were suspended in sterile physiological saline at a density of 2×10^6 cells/0.05 ml. After noble rats were anesthetized with fentanyl and the abdomen was opened, 2×10^6 cells per rat were transplanted into the prostate gland of the rats. Seven days after carcinoma transplantation, the rats were randomly allocated. The kit prepared in Example 2 was used as a test drug, and 0.05 ml of the kit was administered. The rats were divided into four groups: a control group (no treatment); two administration groups administered with 0.5 mCi and 1.0 mCi of the complex solution; and another administration group administered with a non-radioactive complex solution (Holmium-165 (^165Ho)-chitosan complex solution). Two and four weeks after administration of the complex solution, the rats were sacrificed, and tumors were excised from the rats and weighed.
# [5] = Histopathological examination of organs of rats of the orthotopic model (hematoxylin and eosin); format: in vivo, noble rats; settings: for Histopathological changes in organs other than the tumor tissue (heart, lung, liver, kidney, spleen, testes, epididymis, seminal vesicle, bladder, rectum): last day of the test
# Description: (§1) From all rats tested in Experimental Example 7, which were sacrificed on the last day of the test, the heart, lung, liver, kidney, spleen, testes, epididymis, seminal vesicle, bladder, rectum and tumor tissues were excised, embedded in paraffin according to general tissue processing, and sectioned into a thickness of 3 μm. The tissue sections were subjected to double staining with hematoxylin and eosin and histopathologically examined.
# [6] = test system: AIT tumor transplanted into the prostate gland; assay: Histopathological examination of tumor tissue of rats of the orthotopic model (hematoxylin and eosin); format: in vivo, noble rats
# Description: as §1
# [7] = 0.5 mCi, four weeks after administration (FIG. 2 C and D)
substance,measurement,setting,value
Holmium-166 (^166Ho)-Chitosan Complex [complex solution],"Radioactive concentration, Administration site","[1]; 25 μl administration, 30 min",4258 ± 732.9 % ID/g
same,"Radioactive concentration, End region of femur","[1]; 25 μl administration, 30 min",0.05 ± 0.030 % ID/g
same,"Radioactive concentration, Spine","[1]; 25 μl administration, 30 min",0.02 ± 0.009 % ID/g
same,"Radioactive concentration, Administration site","[1]; 25 μl administration, 6 hrs",4478 ± 1212.4 % ID/g
same,"Radioactive concentration, End region of femur","[1]; 25 μl administration, 6 hrs",0.16 ± 0.047 % ID/g
same,"Radioactive concentration, Kidney","[1]; 25 μl administration, 6 hrs",0.01 ± 0.002 % ID/g
same,"Radioactive concentration, Liver","[1]; 25 μl administration, 6 hrs",0.04 ± 0.015 % ID/g
same,"Radioactive concentration, Spine","[1]; 25 μl administration, 6 hrs",0.04 ± 0.011 % ID/g
same,"Radioactive concentration, Spleen","[1]; 25 μl administration, 6 hrs",0.03 ± 0.007 % ID/g
same,"Radioactive concentration, Administration site","[1]; 50 μl administration, 30 min",3196 ± 212.5 % ID/g
same,"Radioactive concentration, End region of femur","[1]; 50 μl administration, 30 min",0.05 ± 0.030 % ID/g
same,"Radioactive concentration, Kidney","[1]; 50 μl administration, 30 min",0.02 ± 0.011 % ID/g
same,"Radioactive concentration, Liver","[1]; 50 μl administration, 30 min",0.01 ± 0.007 % ID/g
same,"Radioactive concentration, Spine","[1]; 50 μl administration, 30 min",0.02 ± 0.007 % ID/g
same,"Radioactive concentration, Administration site","[1]; 50 μl administration, 6 hrs",3054 ± 1873.0 % ID/g
same,"Radioactive concentration, End region of femur","[1]; 50 μl administration, 6 hrs",0.10 ± 0.065 % ID/g
same,"Radioactive concentration, Kidney","[1]; 50 μl administration, 6 hrs",0.01 ± 0.001 % ID/g
same,"Radioactive concentration, Liver","[1]; 50 μl administration, 6 hrs",0.03 ± 0.008 % ID/g
same,"Radioactive concentration, Spine","[1]; 50 μl administration, 6 hrs",0.04 ± 0.018 % ID/g
same,"Radioactive concentration, Spleen","[1]; 50 μl administration, 6 hrs",0.02 ± 0.014 % ID/g
same,Radioactivity detected in the administration site,[1]; 6 hrs after administration,over 90%
same,"Radioactivity in major organs including the liver, spleen and kidney",[1]; 6 hrs after administration,no radioactivity was detected
same,"Radioactivity in major organs including the liver, spleen and kidney","[1]; 6 hrs after administration, listed as radioisotope-chitosan complex",rarely detected
same,"Cumulative excretion, Urine","[2]; 0-3 hr, animal 1",0.03 % of dose
same,"Cumulative excretion, Urine","[2]; 0-3 hr, animal 2",0.03 % of dose
same,"Cumulative excretion, Urine","[2]; 0-3 hr, animal 3",0.04 % of dose
same,"Cumulative excretion, Urine","[2]; 0-6 hr, animal 1",0.04 % of dose
same,"Cumulative excretion, Urine","[2]; 0-6 hr, animal 2",0.04 % of dose
same,"Cumulative excretion, Urine","[2]; 0-6 hr, animal 3",0.05 % of dose
same,"Cumulative excretion, Urine","[2]; 0-24 hr, animal 1",0.11 % of dose
same,"Cumulative excretion, Urine","[2]; 0-24 hr, animal 2",0.13 % of dose
same,"Cumulative excretion, Urine","[2]; 0-24 hr, animal 3",0.17 % of dose
same,"Cumulative excretion, Feces","[2]; 0-72 hr, Mean",0.11 % of dose
same,"Cumulative excretion, Urine","[2]; 0-72 hr, Mean",0.35 % of dose
same,"Cumulative excretion, Feces","[2]; 0-72 hr, animal 3",0.11 % of dose
same,Radioactivity remaining in Carcass,[2]; Mean,2.67 % of dose
same,Radioactivity remaining in Prostate gland,[2]; Mean,99.19 % of dose
same,Radioactivity remaining in Carcass,[2]; animal 1,2.32 % of dose
same,Radioactivity remaining in Prostate gland,[2]; animal 1,98.84 % of dose
same,Radioactivity remaining in Carcass,[2]; animal 2,3.27 % of dose
same,Radioactivity remaining in Prostate gland,[2]; animal 2,96.79 % of dose
same,Radioactivity remaining in Carcass,[2]; animal 3,2.42 % of dose
same,Radioactivity remaining in Prostate gland,[2]; animal 3,101.94 % of dose
same,Total recovery rate,[2]; Mean,99.65%
same,Total recovery rate,[2]; animal 1,99.23%
same,Total recovery rate,[2]; animal 2,97.27%
same,Total recovery rate,[2]; animal 3,102.46%
same,Tumor volume after injection,"[3]; 10 mCi per 1 cm^3 tumor, 1 wk",0.48 ± 0.35 cm^3
same,Tumor volume after injection,"[3]; 10 mCi per 1 cm^3 tumor, 2 wks",0.32 ± 0.20* cm^3
same,Tumor growth inhibition rate,[3]; 10 mCi per 1 cm^3 tumor,95.1%
same,Tumor volume after injection,"[3]; 20 mCi per 1 cm^3 tumor, 1 wk",0.28 ± 0.04 cm^3
same,Tumor volume after injection,"[3]; 20 mCi per 1 cm^3 tumor, 2 wks",0.09 ± 0.24* cm^3
same,Tumor growth inhibition rate,[3]; 20 mCi per 1 cm^3 tumor,98.6%
same,Tumor growth inhibition rate,"[3]; 20 mCi per 1 cm^3 tumor, listed as Complex",98.6%
same,Inhibitory activity against the tumor growth,[3]; subcutaneous tumor model,higher than 95%
same,Tumor weight,"[4]; 0.5 mCi, 2 wks after administration",0.45 ± 0.07 g
same,Tumor weight,"[4]; 0.5 mCi, 4 wks after administration",1.58 ± 0.97 g
same,Tumor weight,"[4]; 1.0 mCi, 2 wks after administration",0.49 ± 0.08 g
same,Tumor weight,"[4]; 1.0 mCi, 4 wks after administration",1.09 ± 0.32 g
same,Effect on tumor growth,"[4]; two weeks after administration, listed as present complex",showed an inhibitory effect against the tumor growth; also recorded: the tumor growth was suppressed
same,"Histopathological changes in organs other than the tumor tissue (heart, lung, liver, kidney, spleen, testes, epididymis, seminal vesicle, bladder, rectum)",[5]; listed as present complex solution,no abnormalities in adjacent organs were found
same,"Histopathological changes in organs other than the tumor tissue (heart, lung, liver, kidney, spleen, testes, epididymis, seminal vesicle, bladder, rectum)",[5]; listed as radioisotope-chitosan complex,particular histopathological changes are not found
same,Cellularity of the bone marrow and peripheral blood,"[5]; rat, in vivo",not reduced
same,"Histopathology of the tumor, center of injection site",[6]; [7],broad necrosis
same,Tumor cells in injection site,[6]; [7],all of tumor cells in injection site are necrotized
same,Histopathology of the tumor tissue at the administration site,[6]; last day of the test,a large necrosis
